# In article PMC2583301:
# Target: H2A/H2B(T112C) dimer, H2B labelled with Alexa dye (Xenopus laevis) (UniProt P06897)
# Assay: other fluorescence titration
Kd,Kd app (yNap1 counted as dimer),Binder
10 nM,5.4 nM,yNap1(74-365) (domain or fragment) LGSLVGQDSGYVGGLPKNVKEKLLSLKTLQSELFEVEKEFQVEMFELENKFLQKYKPIWEQRSRIISGQEQPKPEQIAKGQEIVESLNETELLVDEEEKAQNDSEEEQVKGIPSFWLTALENLPIVCDTITDRDAEVLEYLQDIGLEYLTDGRPGFKLLFRFDSSANPFFTNDILCKTYFYQKELGYSGDFIYDHAEGCEISWKDNAHNVTVDLEMRKQRNKTTKQVRTIEKITPIESFFNFFDPPKIQNEDQDEELEEDLEERLALDYSIGEQLKDKLIPRAVDWFTGAAL
1.7 nM,0.9 nM,yNap1(74-417) (domain or fragment) LGSLVGQDSGYVGGLPKNVKEKLLSLKTLQSELFEVEKEFQVEMFELENKFLQKYKPIWEQRSRIISGQEQPKPEQIAKGQEIVESLNETELLVDEEEKAQNDSEEEQVKGIPSFWLTALENLPIVCDTITDRDAEVLEYLQDIGLEYLTDGRPGFKLLFRFDSSANPFFTNDILCKTYFYQKELGYSGDFIYDHAEGCEISWKDNAHNVTVDLEMRKQRNKTTKQVRTIEKITPIESFFNFFDPPKIQNEDQDEELEEDLEERLALDYSIGEQLKDKLIPRAVDWFTGAALEFEFEEDEEEADEDEDEEEDDDHGLEDDDGESAEEQDDFAGRPEQAPECKQS
2.1 nM,1 nM,yNap1(1-365) (domain or fragment) MSDPIRTKPKSSMQIDNAPTPHNTPASVLNPSYLKNGNPVRAQAQEQDDKIGTINEEDILANQPLLLQSIQDRLGSLVGQDSGYVGGLPKNVKEKLLSLKTLQSELFEVEKEFQVEMFELENKFLQKYKPIWEQRSRIISGQEQPKPEQIAKGQEIVESLNETELLVDEEEKAQNDSEEEQVKGIPSFWLTALENLPIVCDTITDRDAEVLEYLQDIGLEYLTDGRPGFKLLFRFDSSANPFFTNDILCKTYFYQKELGYSGDFIYDHAEGCEISWKDNAHNVTVDLEMRKQRNKTTKQVRTIEKITPIESFFNFFDPPKIQNEDQDEELEEDLEERLALDYSIGEQLKDKLIPRAVDWFTGAAL
